Data: US20100272736A1 (KALOBIOS PHARMACEUTICALS, published 2010)

B1: Fab SEQ ID NOs. 35. 36 (Fab, V domains shown)
VH: EVQLVESGGGVVQPGRSLRLSCAASGFTFSNYPMHWVRQAPGKGLEWVAVISYDGSEKWYADSVKGRFTISRDNSKNTLYLEMNSLRPEDTAVYYCARNRGDIYYDFTYAMDYWGQGTTVTVSS
VL: DIQLTQSPSTLSASVGDSVTITCRASEGVDRWLAWYQQKPGRAPKLLIYDASTLQSGVPSRFSGSGSGTEFSLTISSLQPDDVATYYCQHFWSTPYTFGQGTKLEIK
B2: Fab SEQ ID NOs: 5, 6 (Fab, V domains shown)
VH: QVQLVESGGGVVQPGRSLRLSCTASGFSFSSYGMHWVRQAPGKGLEWVAVIWYNGKEISYADSVKGRFTVSRDNPKNTLYLQMSSLRTEDTAVYYCARNRGDIYYDFTYAMDIWGQGTMVTVSS
VL: AIQLTQSPSFLSASVGDRVTITCRASQGISTYLAWYQQKPGKAPKLLIYAASSLQSGVPSRFSGSGSGTDFTLTISSLQPEDVATYYCQQFWSTPYTFGQGTKLEIK
B3: Fab SEQ ID NOs: 13, 4 (Fab, V domains shown)
VH: QVQLVESGGGVVQPGRSLRLSCAASGFTFSSYPLHWVRQAPGKGLEWVSFISYDGSEKYYASSVKGRFTISRDNSENTLYLQMNSLRPEDTAVYYCARNRGDIYYDFTYAMDIWGQGTMVTVSS
VL: DIQMTQSPSSLSASVGDRVTITCRASQSISRWVAWYQQRPGKAPNLLIYDASSLKSGVPSRFSGSGSGTEFTLTISSLQPEDIATYYCQQFWSTPYTFGQGTKLEIK
B4: Fab SEQ ID NOs: 13, 37 (Fab, V domains shown)
VH: QVQLVESGGGVVQPGRSLRLSCAASGFTFSSYPLHWVRQAPGKGLEWVSFISYDGSEKYYASSVKGRFTISRDNSENTLYLQMNSLRPEDTAVYYCARNRGDIYYDFTYAMDIWGQGTMVTVSS
VL: DIQMTQSPSSLSASVGDRVTITCRASQSISRWVAWYQQRPGKAPNLLIYDASSLKSGVPSRFSGSGSGTEFTLTISSLQPEDIATYYCQQFWGTPYTFGQGTKLEIK
B5: Fab SEQ ID NOs 3, 4 (Fab, V domains shown)
VH: QVQLVESGGGVVQPGGSLRLSCAASGFTFSTAGMHWVRQAPGKGLEWVAVIWYNGKEISYADSVKGRFTVSRDNPKNTLYLQMSSLRTEDTAVYYCARNRGDIYYDFTYAMDIWGQGTMVTVSS
VL: DIQMTQSPSSLSASVGDRVTITCRASQSISRWVAWYQQRPGKAPNLLIYDASSLKSGVPSRFSGSGSGTEFTLTISSLQPEDIATYYCQQFWSTPYTFGQGTKLEIK
B6: Fab SEQ ID NOs. 24, 26 (Fab, V domains shown)
VH: EVQLVESGGGVVQPGRSLRLSCAASGFTFSNYPMHWVRQAPGKGLEWVAVISYDGSEKWYADSVKGRFTISRDNSKNTLYLEMNSLRPEDTAVYYCARNRGDIYYDFTYAMDIWGQGTTVTVSS
VL: DIQLTQSPSTLSASVGDSVTITCRASEGVDRWLAWYQQKPGRAPKLLIYDASTLQSGVPSRFSGSGSGTEFSLTISSLQPDDVATYYCQHFWGTPYTFGQGTKLEIK
B7: Fab SEQ ID NOs: 13, 10 (Fab, V domains shown)
VH: QVQLVESGGGVVQPGRSLRLSCAASGFTFSSYPLHWVRQAPGKGLEWVSFISYDGSEKYYASSVKGRFTISRDNSENTLYLQMNSLRPEDTAVYYCARNRGDIYYDFTYAMDIWGQGTMVTVSS
VL: DIQLTQSPSFLSASVGDRVTITCRASQGISTYLAWYQQKPGKAPKLLIYDASALQSGVPSRFSGSGSGTEFTLTISSLQPEDVATYYCQQFWSTPYTFGQGTKLEIK

Each binder was assayed against PcrV on Pseudomonas aeruginosa strain PA103 (type III secretion system) (Pseudomonas aeruginosa strain PA103) (assay: cell-based or functional assay).

Row | Binder | IC50 (nM), TTSS-dependent cytotoxicity assay (PA103 killing of P3-X63-Ag8 myeloma cells, propidium iodide flow cytometry)
1 | B1 | 61.4 nM
2 | B2 | 50.2 nM
3 | B3 | 20 nM
4 | B4 | 12 nM
5 | B5 | 35.1 nM
6 | B6 | 25.5 nM
7 | B7 | 25.5 nM
